{"source": "patent US20250122266A1", "about": "“SMART SINGLE-DOMAIN INTRABODIES WITH PRECISION SWITCHES FOR BIOMEDICAL APPLICATIONS” (THE TEXAS A&M UNIVERSITY SYSTEM, priority 2020, published 2025)", "molecules": {"B1": {"name": "WT: wild-type anti-caffeine single variable domain on a heavy chain (acVHH), tested as PB-tagged YFP fusion (protein)", "VHH": "QLVESGGGLVQAGGSLRLSCAVSGRPFSEYNLGWFRQAPGKEREFVARIRSSGTTVYTDSVKGRFSASRDNATCVVHYTGMLEDGKKFDSSRDRNKPFKFMLGKQEVIRGWEEGVAQMSVGQRAKLTISPDYAYGATGHGSGSGSGVKDLLQAWDLYYHVFRRISGPPGPGSGLWHEMWHEGLEEASRLYFGERNVKGMFEVLEPLHAMMERGPQTLKETSFNQAYGRDLMEAQEWCRKYMKSGSSGGSGSGIIPPHATLVFDVELLKLEKNMGYLQLNSLEPEDTAVYYCAMSRVDTDSPAFYDYWGQGTQVTVSTPRS"}, "B2": {"name": "biCOSMO-L: two COSMO copies connected by longer mixed flexible and rigid linker, SEQ ID NO: 7 (protein)", "chain": "EVQLQASGGGLVQAGGSLRLSCTASGRTGTIYSMAWFRQAPGKEREFLATVGWSSGITYYMDSVKGRFTISRDNAKNSAYLQMNSLKPEDTAVYYCTATRAWSVGYDYWGQGTQVTVSHAAAGAPVPYPDPLEPREQKLISEEDLGGSGGAPEVQLQASGGGLVQAGGSLRLSCTASGRTGTIYSMAWFRQAPGKEREFLATVGWSSGITYYMDSVKGRFTISRDNAKNSAYLQMNSLKPEDTAVYYCTATRAWSVGYDYWGQGTQVTVS"}, "B3": {"name": "moonbody: anti-SH2 Abl monobody with LOV2 inserted at site S5 (optimized), SEQ ID NO: 1 (protein)", "chain": "VSSVPTKLEVVDATPTSLKISWDAYYSSWQNVKYYRITYGETGGDSPVQEFTVPGYYSTATISGLKPGSGLATTLERIEKNFVITDPRLPDNPIIFASDSFLQLTEYSREEILGRNCRFLQGPETDRATVRKIRDAIDNQTEVTVQLINYTKSGKKFWNLFHLQPMRDQKGDVQYFIGVQLDGTEHVRDAAEREGVMLIKKTAENIDEAAKELGVDYTITVYAYDTFFPGYEPNSPISINYRT"}, "B4": {"name": "sunbody: anti-mCherry nanobody LaM8 with LOV2 at N-terminus (S0) and S3 loop, SEQ ID NO: 2 (protein)", "chain": "LATTLERIEKNFVITDPRLPDNPIIFASDSFLQLTEYSREEILGRNCRFLQGPETDRATVRKIRDAIDNQTEVTVQLINYTKSGKKFWNLFHLQPMRDQKGDVQYFIGVQLDGTEHVRDAAEREGVMLIKKTAENIDEAAKELKLMAQVQLVESGGGLVQAGGSLRLSCAVSGRPFSEYNLGWFRQAPGKEREFVARIRSSGTTVYTDSVKGRFSASRDNALERIEKNFVITDPRLPDNPIIFASDSFLQLTEYSREEILGRNCRFLQGPETDRATVRKIRDAIDNQTEVTVQLINYTKSGKKFWNLFHLQPMRDQKGDVQYFIGVQLDGTEHVRDAAEREGVMLIKKTAENIDEAAKNMGYLQLNSLEPEDTAVYYCAMSRVDTDSPAFYDYWGQGTQVTVSTPRS"}}, "key": {"[1]": {"details": "aqueous solutions, purified protein; read-out: dissociation constant (Kd); cited from earlier work"}, "[2]": {"details": "HeLa cells", "experimental": "The PM-translocation of acVHH-PB variants was used as a readout for high-content imaging. HeLa cells were seeded in a glass-bottom 96-well microplate (Cellvis, Mountain View, CA, USA) at a density of 1×10^4 cells/well and cultured in 40 μL DMEM supplemented with 10% FBS in 5% CO2 at 37° C. 12 hours later, the constructed plasmids were transfected into HeLa cells with Lipofectamine 3000. After 18 hours, the microplate was mounted on the IN Cell Analyzer 6000 (GE) high-content imaging instrument in the absence of caffeine and performed fast imaging with four captured views per well. Next, the microplate was incubated with caffeine (1 μM) for 10 min and re-imaged using the same parameters. The exported florescent images were then analyzed with an Image J PathFinder plugin for automated membrane detection and quantification. The screened top candidate mutations were further characterized by titration with increasing doses of caffeine to obtain the EC50 cures in living cells. The PM/Cytosol ratios were quantified and plotted against the dosest to obtain the apparent binding affinity. […]\nCaffeine was titrated into HeLa cells expressing YFP-acVHH-PB variants (as shown in FIG. 2C) and used the PM-to-cytosol ratio of fluorescent signal as a sensitive readout."}, "SH2-mEmerald": {"system": "SH2-mEmerald", "assay": "moonbody regulated protein degradation", "type": "cell-based", "details": "moonbody fused with AFB2, escalating doses of pulsed light", "procedure": "The plasmid encoding the moonbody fused with the F-box protein atAFB2 was co-transfected with SH2-mEmerald into HeLa cells. Cells were treated with or without a customized blue light source (470 nm, 40 μW/mm2) after 16 h transfection. Light stimulation was applied for 10% (1 min ON, 9 min OFF), 30% (3 min ON, 7 min OFF), or 50% (5 min ON, 5 min OFF). After an additional 16 hours, cells were imaged and SH2-mEmerald mean intensity were measured. Moonbody without atAFB2 was used as control.\nIt was then evaluated if moonbody could be utilized to conditionally fine-tune the expression levels of its binding target. The SH2-specific moonbody was fused with the auxin signalling F-box 2 protein (AFB2), a component in the Skp1-Cu1-F-Box (SCF) E3 ubiquitin ligase complex that can recruit auxin-inducible degrons for proteasomal degradation. Monobody can directly recognize its target, thus obviating the need for auxin and the fusion of the degron tag to a target protein."}, "[3]": {"system": "SH2 domain of Abl (NE-SH2)", "assay": "nuclear envelope (NE) translocation assay of moonbody variants", "type": "cell-based", "procedure": "(§1) To monitor light-induced F-body: antigen association or dissociation, HeLa cells seeded on glass-bottom dishes were co-transfected with the indicated plasmids shown in the figures. Confocal images were acquired 24-48 hours after transfection. The cells were imaged every 4 sec for 2 nmin unless otherwise noted. The 488-nm laser source to excite GFP was also used for photostimulation (with 1-5% output). To quantify fluorescent signals at selected areas, we used the region-of-interest (ROI) toolbox in Nikon NIS-Elements software to define the nuclear envelope (NE) or nucleoplasm (NP) regions. The “Time Measurement” tool was used to determine the mCherry intensities for moonbody variants and GFP intensities for sunbody variants. The fluorescence intensity ratio (FNE/FNP) was used as readout, with the changes in the ratio plotted as F/F0 or ΔF/F0. For spatially-restricted photostimulation, the FRAP module in the Nikon imaging system was used, with the 488-nm laser power output set at 0.2%-5%.\nThe instant example provides a light-controllable monobody by inserting the LOV2 photoswitch into a fibronectin type III domain (FN3) scaffold that specifically recognizes the Src Homology 2 (SH2) domain of Abelson tyrosine kinase (Abl). […]"}, "[4]": {"system": "mCherry (NE-tethered mCh-lamin A)", "assay": "NP-to-NE translocation assay of sunbody variants", "type": "cell-based", "details": "HeLa cells, GFP-tagged LaM8-LOV2 constructs, after photostimulation", "procedure": "as §1\nThe instant example screens photo-switchable nanobodies using a similar engineering approach and the NE translocation assay (see FIGS. 20A-20B). For this example, an mCherry-specific nanobody (LaM8) was used and LOV2 was inserted into flexible loop regions opposing the CDRs (see FIG. 20B and FIG. 21A), the latter of which are involved in direct antigen recognition and thus remain unperturbed."}}, "data": [{"molecule": "B1", "values": [{"measurement": "Kd", "setting": "[1]", "value": 500, "unit": "nM"}]}, {"molecule": "B2", "values": [{"measurement": "caffeine-inducible PM translocation", "setting": "[2]; 200 or 1000 nM caffeine", "value": "caffeine-induced PM translocation was no longer observed"}, {"measurement": "EC50 (caffeine sensitivity), result in words", "setting": "[2]; PB-tagged variants, caffeine titration", "value": "Intramolecular binding"}]}, {"molecule": "B3", "values": [{"measurement": "target protein level under pulsed light", "setting": "SH2-mEmerald", "value": "gradual recovery of SH2-mEmerald signals"}, {"measurement": "light-dependent moonbody-target interaction", "setting": "[3]; HeLa cells, NE/NP ratio of mCh signals", "value": "almost complete dissociation from NE"}, {"measurement": "repeated NE-to-NP translocation, number of dark-light cycles", "setting": "[3]; reversibility", "value": "at least 10 dark-light cycles"}]}, {"molecule": "B4", "values": [{"measurement": "light-induced change in the NE/NP ratio", "setting": "[4]", "value": "over 80%"}]}]}
